Results on one molecule are retold here after US7078038 (INSTITUT DE RECHERCHE POUR LE DEVELOPPEMENT I R D, dated 2006).

The target in this experiment is T1, W338S gp120 (rgp120 of the HXB2 clone of HIV-IIIB with the W338S mutation) (HIV-1 (HXB2 clone of HIV-IIIB), UniProt P04578 33-511).
T1 construct: domain: gp120; Position counted in HxBc2 numbering; also called muted gp120; mutant gp120
In words: FACS on CEM cells: no labelling by anti-CXCR4 12GS after incubation with gp120.

B1: CXCR4 receptor on the cell surface (receptor)
chain: MEGISIYTSDNYTEEMGSGDYDSMKEPCFREENANFNKIFLPTIYSIIFLTGIVGNGLVILVMGYQKKLRSMTDKYRLHLSVADLLFVITLPFWAVDAVANWYFGNFLCKAVHVIYTVNLYSSVLILAFISLDRYLAIVHATNSQRPRKLLAEKVVYVGVWIPALLLTIPDFIFANVSEADDRYICDRFYPNDLWVVVFQFQHIMVGLILPGIVILSCYCIIISKLSHSKGHQKRKALKTTVILILAFFACWLPYYIGISIDSFILLEIIKQGCEFENTVHKWISITEALAFFHCCLNPILYAFLGAKFKTSAQHALTSVSRGSSLKILSKGKRGGHSSVSTESESSSFHSS
notes: whole, on cells; also called CXCR4 co-receptor; CEM cells CD4+/CXCR4+
In the case of B1, the binding result was “binds”.
